A short description of data set [1]: Stability of colloids in water solution. The format is physicochemical. The following applies: soy oil colloids. The protocol:
(§1) Initial encapsulation studies were carried out using high purity soy oil containing a lipid soluble dye, Nile Red. Studies were carried out using FLIVI-KKKKK (SEQ ID NO:1, where X is F). Increasing concentrations of the peptide (see FIG. 2) were prepared in Trifluoroethanol and dried in vacuo. To each tube, 22 μL of soy oil containing Nile Red dye (1 mg/mL) was added and allowed to stand for 15 min. Distilled/deionized water (480 μL) was then added and mixed repeatedly using a vortex mixer over a period of at least 5 min. The solution became somewhat cloudy as the dye containing colloids formed at the higher peptide concentrations. 25% was encapsulated at 0.5 mM peptide concentration with 80% encapsulated by the 1 mM peptide concentration. The colloids formed using the FLIVI-KKKKK (SEQ ID NO:1, where X is F) sequence remain stable in a water solution for extended periods of time (at least 12 months).

Data set [2] is described as follows: Encapsulation of soy oil containing Nile Red dye by peptide. The format is physicochemical. The following applies: 22 μL soy oil with Nile Red, 480 μL water. How it is done:
as §1

Data set [3] is described as follows: Dynamic light scattering of LEAP alone in water (micelles). The format is physicochemical. The following applies: 1 mg peptide in water, no excipient. The protocol:
One mg of the LEAP (Ac-FLIVIKKKK-CONH2, SEQ ID NO:1, where X is F) was dissolved in 500 μL of DDI-RO water. The solution was sonicated for 10 min then allowed to rest at room temperature for approximately 60 min. This solution was further diluted to 10 mL with DDI-RO water prior to dynamic light scattering analysis. Light scattering data was recorded using an Anton-Parr Litesizer 500 instrument and processed using the proprietary ‘Kalliope’ analysis software. The DLS calculations indicated particles with a hydrodynamic diameter of 928.3 nm with peak numerical intensity at 120.09 nm and a polydispersity index of 229.1%.

For a further data set, the system named is Aspergillus nidulans. Kind of data set: Antifungal activity on spore seeded plates (1% skim milk agar), Example 3. The format is cell-based. The conditions noted are these: 0.5% Captan in 1:1 propionic acid/soy oil, applied as mixture alone (label Captan) or encased in the named peptide; 5 to 40 μL spotted. The protocol:
A 0.5% solution of Captan was prepared in a 1:1 mixture of propionic acid and soy oil (final volume of 10 μL for each peptide). The solution was added to 1 mg of dried peptide. After incubating for 15 min, water (490 μL, pH=3) was added dropwise, then sonicated in a bath sonicator for 5 min at 37° C. and allowed to stand for 20 min. The sample was then centrifuged at room temperature for 10 min at 14K×g. At this point each peptide-lipid complex formed a whitish film on the surface of the water. The volume of water was reduced using a Pipetman leaving a final volume of 150 μL. The solution was again vortexed to resuspend the colloids. An illustration of the colloidal particle with the active ingredient distributed throughout the colloidal body is shown in FIG. 3. A number of different controls were tested along with the peptides prepared with all of the components: soy oil only, soy oil+propionic acid, soy oil+propionic acid+Captan. Volumes of from 5 to 40 μL were spotted on spore seeded plates of Aspergillus nidulans grown on 1% skim milk agar gel) yielding 0.33 and 1.33 μg of active agent delivered, respectively (FIG. 4).
In FIG. 4, lawns of A. were seeded just before testing. The actively growing fungus appears greenish yellow in color. For controls (FIG. 5A) soy oil and soy oil+propionic acid (1:1, v/v) were applied directly to the plates at the indicated volumes. […] When the 1:1 soy plus propionic acid was separately encased using the two peptides (FIG. 5B, columns 1 and 2) there was minimal antifungal activity. In FIG. 5C, column 1, Captan was dissolved in the propionic acid prior to mixing with the soy oil.

Data set [4] in a line: Resizing by extrusion through 100 nm polycarbonate filters. The format is physicochemical. The following applies: extruded through 100 nm polycarbonate filters. The text has this: Given that particle sizes for both peptides were above the nanoscale cutoff of 100 nm, the samples were subjected to resizing by extruding them through 100 nm polycarbonate filters. The […]-L particles were resized to about 80 nm after extrusion (data not shown). The […]-L particles could be resized to about 90 nm.

A short description of data set [5]: Average size and zeta potential by light scattering (ZetaPlus), soy oil colloids. The format is physicochemical. The conditions noted are these: peptide colloids in high purity soy oil. How it is done:
Peptide colloids were prepared with either Ac-FLIVI-KKKKK-CO-NH2 (SEQ ID NO:1, where X is F, “h5F-L”) or Ac-VLIVI-KKKKK-CO-NH2 (SEQ ID NO:1, where X is V, “h5V-L”), in high purity soy oil were tested for average size and zeta potential (surface charge) using light scattering on a ZetaPlus particle sizing instrument. A control was prepared using high purity soy oil mixed with water and sonicated.

Another data set deals with A. nidulans. Description: Growth inhibition, Captan alone or LEAP encapsulated at different concentrations, Example 4. The format is cell-based, Aspergillus nidulans. The conditions noted are these: 50 μL per plate. The protocol:
In this example, the effectiveness of Captan alone or encased in a LEAP colloidal particle on A. nidulans growth was compared. Different concentrations of Captan were tested for growth inhibition when applied directly to freshly seeded fungi growing on 1% milk plates or after encapsulation as a colloidal particle with a LEAP (h5F-L). Captan was dissolved in a formulated (1:1:2) solution containing propionic acid, soy oil, and a pesticide synergist, Piperonyl butoxide (PBO). The resulting active solution was diluted to the following concentrations: 1%, 0.1%, 0.05%, 0.01%, 0.005%, 0.001%. A volume of 50 μL of the 1:1:2 solution containing the fungicide was combined with 1 mmole of dry peptide and then allowed to stand for 20 minutes. Deionized water was then added to the colloidal mixture to raise the total volume to 1 mL, followed by sonicating the mixture for 5 minutes, and then incubating for 60-90 minutes. A volume of 50 μL for each test solution was added to the center of each plate (FIG. 6).

For data set [6] the following is noted: cited from earlier work.
In the next data set the test system is M. sexta larvae. Kind of data set: Persistence assay, 3-day and 5-day waiting period before adding larvae. The format is in vivo, Manduca sexta. The following applies: Novarulon 0.02%; both waiting periods (3-day, 5-day) before adding first instar larvae. The protocol:
Subsequently, a persistence assay was conducted to see if the LEAP colloidal particles could protect the active ingredient from environmental degradation. Two studies were conducted, one with a 3-day (FIG. 8) and the other with a 5-day (FIG. 9) waiting period before adding the first instar larvae. The methods used to prepare the LEAP colloidal particle encased materials and the preparation of the coated leaves were identical as described above, except that the leaf discs were allowed to sit in the incubator under the previously described conditions outlined above for the designated time period. After the designated waiting period, 1-day old (first instar) M. sexta larvae were place on the treated leaves. Each day the number of dead larvae were counted. Examining FIGS. 8 and 9, it is clear to see that the LEAP colloidal particles containing the active ingredient Novarulon started killing faster than the Novarulon control. […] Since the Novarulon by itself was still active it appears that coating the Novarulon containing oil droplet with the peptide appears to have been ingested more efficiently such that the lethal dose was achieved more rapidly.

Data set [7] concerns leaves of Vicia faba (Fava beans). Description: Effects of formulations sprayed on leaves. The following applies: Vicia faba (fava bean), in vivo, 24 h. The protocol:
In this study, we looked at the effects of the Captan fungicide formulation with and without the LEAP peptide when applied to the leaves of Vicia faba (Fava beans). Three formulations were prepared for this experiment: […]
Deionized water was added to each formulation to a final volume 1 mL and allowed to stand at room temperature for 60-90 min. […]

The values that follow come from patent US12677828B2, “Lipid encasing amphipathic peptides” (Kansas State University Research Foundation, priority 2019, dated 2026).

Regarding “FLIVI-KKKKK (XLIVIKKKKK; (1)..(1) X is F or V)”, the “colloids remain stable in a water solution” value in [1] is “at least 12 months”. Further, the encapsulated in data set [2] (0.5 mM peptide concentration) is given as 25%; in data set [2] (1 mM peptide concentration), 80%.

Regarding “Ac-FLIVI-KKKKK-CO-NH2 (Ac-FLIVIKKKKK-NH2) [h5F-L, lipid encasing amphipathic peptide]”, in data set [3], the peak numerical intensity is recorded as 120.09 nm and the polydispersity index is 229.1%. In data set [3] (diluted to 10 mL), the hydrodynamic diameter is on record as 928.3 nm. In the data set with Aspergillus nidulans, the antifungal activity entry is listed as “complete growth inhibition”. Moreover, the “particle size after extrusion” value in data set [4] is reported as “about 80 nm”. Also, in data set [5], the GSD result is recorded as “GSD 1.618”, the “Median Diam.” value is “Median Diam. 363.8 nm” and the zeta potential is on record as 46±2.5 mV.

Regarding `O=C1[C@H]2CC=CC[C@H]2C(=O)N1SC(Cl)(Cl)Cl` [Captan, (3aR,7aS)-2-[(Trichloromethyl)sulfanyl]-3a,4,7,7a-tetrahydro-1H-isoindole-1,3(2H)-dione], in the data set on Aspergillus nidulans, the antifungal activity entry is “not very effective”. Also, the growth inhibition entry was “only slight inhibition” with A. nidulans (0.1% concentration) and “strong growth inhibition” with A. nidulans (highest concentration (1%), propionic acid, soy oil, PBO (1:1:2)). In addition, in data set [6] (C3 organic acid, propionic acid), the “solubility in propionic acid” value was “good solubility”. Moreover, the “solubility in water relative to acetone and xylene (fold less)” value in [6] (water vs acetone, xylene) was 4000 fold.

“1-[3-chloro-4-phenyl]-3-urea [Novarulon]”: in the data set on M. sexta larvae, the killing of larvae result is given as “still active”.

Consider “Ac-VLIVI-KKKKK-CO-NH2 (Ac-VLIVIKKKKK-NH2) [h5V-L, lipid encasing amphipathic peptide]”, for which the antifungal activity result in the data set with Aspergillus nidulans is recorded as “a small amount of antifungal activity”. For the same compound, in [4], the “particle size after extrusion” value is reported as “about 90 nm”. Also, in [5], the GSD result is “GSD 1.528”, the “Median Diam.” value is recorded as “Median Diam. 216.5 nm” and the zeta potential is given as 43±1.6 mV.

Consider `CCC(=O)O` [propionic acid], for which the leaf damage result in data set [7] was “black spots on the leaves after 24 hr”.
